Substrate in data set [1]: CCn1c(=NN=c2sc3cc(S(=O)(=O)O)ccc3n2CC)sc2cc(S(=O)(=O)O)ccc21
Briefly: purified protein. The class given is biochemical, Irpex lacteus. The settings on record: 0.4 mM H2O2, pH 3.0, 25 °C.

Substrate in data set [2]: Nc1c(N=Nc2ccc(S(=O)(=O)CCOS(=O)(=O)O)cc2)c(S(=O)(=O)O)cc2cc(S(=O)(=O)O)c(N=Nc3ccc(S(=O)(=O)CCOS(=O)(=O)O)cc3)c(O)c12
The data set can be described thus: purified protein. It is filed as biochemical, Irpex lacteus. The settings on record: 0.4 mM H2O2, pH 3.0, 25 °C.

B1: IrlacDyP (recombinant Irpex lacteus DyP) (Irpex lacteus) (protein)
chain: SAGNDSLPFENIQGDILVGMKKDKEKFVFFHINNATTFKSFLKTYAPANITSVQTIIGPASGQPQAFVNLAFSHTGFGALGVADDLQDTAFTAGQFADAPSFGDDTSTWEEAFKGTNVDGVFLIGSDDVTTTNQYRDDLKAKLGDAWTVLLDLDSAARPGAEKGHEHFGYLDGISNPTIPGFGTPFPGQAVVDSGVIFAGRTNDPVTNRPSWALDGSFLVFRKLKQLVPEFHKWTLDNALQNQAGNLTVEEGALLLGSRMFGRWNSGAPIDLTPDVDDPTLGSDPQRNNDFNYIHPGEDLTTDETRCPFTAHVRKANPRDLEAQGLIPDLFHAIRAGTPYGPEVTDAESNSNTTSIDRGLAFVEYQSVISNGFRFQQLNWANNANFPFNKSEPLGLDPVIGQGTRQTFGLDPRNASDSLTIPQIIISNGGEYFFSPSITALVEHFGA
notes: mature form, signal peptide removed, 447 residues; about 50 kDa, non-glycosylated
As a reminder, the Km is the concentration of substrate that gives half-maximal velocity. A word on the kcat: it is the maximal rate divided by the concentration of active sites. The kcat/Km is the turnover number divided by the Michaelis constant. As to B1, in “purified protein [1]”, the Km stood at 1.5 ± 0.2 µM, the kcat stood at 49.8 ± 1.3 s⁻¹ and the kcat/Km came to 3.3e+07 ± 4e+06 M⁻¹ s⁻¹. Further, in “purified protein [2]”, the Km came out at 11.9 ± 2.1 µM and the kcat/Km came out at 6.5e+06 ± 1e+06 M⁻¹ s⁻¹.

The record behind these values is article PMC8145141, “Characterization of a Dye-Decolorizing Peroxidase from Irpex lacteus Expressed in Escherichia coli: An Enzyme with Wide Substrate Specificity Able to Transform Lignosulfonates” (Journal of Fungi, 2021).
